{
  "source": "the supplement of paper PMC10567573",
  "parents": {"B1": {"name": "PTPRD (parent)", "chain": "LTKLREMGREKCHQYWPAERSARY"}},
  "data": [
    {"variants_of": "B1", "experiment": "protein stability index of a GFP-peptide fusion (GPS, HEK-293T) (PSI 1-6); higher = more stable", "settings": "c terminus: a fixed tail appended", "values": [
      {"variant": "LTKLREMGREKCHQWWPAERSARY", "note": "[Y15W]", "protein stability index": 1.99},
      {"variant": "LTKLREMGREKCHQAWPAERSARY", "note": "[Y15A]", "protein stability index": 2.93},
      {"variant": "LTKLREMGRDKCHQYWPAERSARY", "note": "[E10D]", "protein stability index": 2.3},
      {"variant": "LTKLREMGRMKCHQYWPAERSARY", "note": "[E10M]", "protein stability index": 1.83},
      {"variant": "LTKLREMGRWKCHQYWPAERSARY", "note": "[E10W]", "protein stability index": 2.15},
      {"variant": "LTKLREMGRIKCHQYWPAERSARY", "note": "[E10I]", "protein stability index": 1.91},
      {"variant": "LTKLREMGRPKCHQYWPAERSARY", "note": "[E10P]", "protein stability index": 2.71},
      {"variant": "LTKLREMGRFKCHQYWPAERSARY", "note": "[E10F]", "protein stability index": 2.13},
      {"variant": "KTKLREMGREKCHQYWPAERSARY", "note": "[L1K]", "protein stability index": 3.36},
      {"variant": "YTKLREMGREKCHQYWPAERSARY", "note": "[L1Y]", "protein stability index": 2.21},
      {"variant": "STKLREMGREKCHQYWPAERSARY", "note": "[L1S]", "protein stability index": 2.59},
      {"variant": "ETKLREMGREKCHQYWPAERSARY", "note": "[L1E]", "protein stability index": 3.12},
      {"variant": "QTKLREMGREKCHQYWPAERSARY", "note": "[L1Q]", "protein stability index": 2.87},
      {"variant": "MTKLREMGREKCHQYWPAERSARY", "note": "[L1M]", "protein stability index": 2.95},
      {"variant": "WTKLREMGREKCHQYWPAERSARY", "note": "[L1W]", "protein stability index": 2.43},
      {"variant": "PTKLREMGREKCHQYWPAERSARY", "note": "[L1P]", "protein stability index": 2.66},
      {"variant": "RTKLREMGREKCHQYWPAERSARY", "note": "[L1R]", "protein stability index": 2.47},
      {"variant": "LTGLREMGREKCHQYWPAERSARY", "note": "[K3G]", "protein stability index": 2.64},
      {"variant": "LTMLREMGREKCHQYWPAERSARY", "note": "[K3M]", "protein stability index": 2.41},
      {"variant": "LTQLREMGREKCHQYWPAERSARY", "note": "[K3Q]", "protein stability index": 2.33},
      {"variant": "LTCLREMGREKCHQYWPAERSARY", "note": "[K3C]", "protein stability index": 2.34},
      {"variant": "LTRLREMGREKCHQYWPAERSARY", "note": "[K3R]", "protein stability index": 2.43},
      {"variant": "LTFLREMGREKCHQYWPAERSARY", "note": "[K3F]", "protein stability index": 2.4},
      {"variant": "LTELREMGREKCHQYWPAERSARY", "note": "[K3E]", "protein stability index": 3.3},
      {"variant": "LTNLREMGREKCHQYWPAERSARY", "note": "[K3N]", "protein stability index": 3.09},
      {"variant": "LTSLREMGREKCHQYWPAERSARY", "note": "[K3S]", "protein stability index": 2.73},
      {"variant": "LTYLREMGREKCHQYWPAERSARY", "note": "[K3Y]", "protein stability index": 2.44},
      {"variant": "LTALREMGREKCHQYWPAERSARY", "note": "[K3A]", "protein stability index": 2.7},
      {"variant": "LTVLREMGREKCHQYWPAERSARY", "note": "[K3V]", "protein stability index": 1.92},
      {"variant": "LTKLGEMGREKCHQYWPAERSARY", "note": "[R5G]", "protein stability index": 3.18},
      {"variant": "LTKLLEMGREKCHQYWPAERSARY", "note": "[R5L]", "protein stability index": 2.4},
      {"variant": "LTKLFEMGREKCHQYWPAERSARY", "note": "[R5F]", "protein stability index": 2.21},
      {"variant": "LTKLPEMGREKCHQYWPAERSARY", "note": "[R5P]", "protein stability index": 2.75},
      {"variant": "LTKLSEMGREKCHQYWPAERSARY", "note": "[R5S]", "protein stability index": 3.17},
      {"variant": "LTKLVEMGREKCHQYWPAERSARY", "note": "[R5V]", "protein stability index": 2.18},
      {"variant": "LTKLREMGREKCHQYWPAEYSARY", "note": "[R20Y]", "protein stability index": 2.33},
      {"variant": "LTKLREMGREKCHQYWPAEPSARY", "note": "[R20P]", "protein stability index": 2.77},
      {"variant": "LTKLREMGREKCHQYWPAEGSARY", "note": "[R20G]", "protein stability index": 2.88},
      {"variant": "LTKLREMGREKCHQYWPAEQSARY", "note": "[R20Q]", "protein stability index": 2.38},
      {"variant": "LTKLREMGREKCHQYWPAETSARY", "note": "[R20T]", "protein stability index": 2.66},
      {"variant": "LTKLREMGREKCHQYWPAEWSARY", "note": "[R20W]", "protein stability index": 1.51},
      {"variant": "LTKLREMGREKCHQYWPAEESARY", "note": "[R20E]", "protein stability index": 2.69},
      {"variant": "LTKLREMGREKCHQYWPAESSARY", "note": "[R20S]", "protein stability index": 2.3},
      {"variant": "LIKLREMGREKCHQYWPAERSARY", "note": "[T2I]", "protein stability index": 2.22},
      {"variant": "LPKLREMGREKCHQYWPAERSARY", "note": "[T2P]", "protein stability index": 2.53},
      {"variant": "LGKLREMGREKCHQYWPAERSARY", "note": "[T2G]", "protein stability index": 2.77},
      {"variant": "LKKLREMGREKCHQYWPAERSARY", "note": "[T2K]", "protein stability index": 2.92},
      {"variant": "LQKLREMGREKCHQYWPAERSARY", "note": "[T2Q]", "protein stability index": 2.95},
      {"variant": "LEKLREMGREKCHQYWPAERSARY", "note": "[T2E]", "protein stability index": 3.03},
      {"variant": "LLKLREMGREKCHQYWPAERSARY", "note": "[T2L]", "protein stability index": 2.15},
      {"variant": "LTKLREMGREKCHQYWPAERSARL", "note": "[Y24L]", "protein stability index": 2.31},
      {"variant": "LTKLREMGREKCHQYWPAERSARI", "note": "[Y24I]", "protein stability index": 2.29},
      {"variant": "LTKLREMGREKCHQYWPAERSARC", "note": "[Y24C]", "protein stability index": 2.65},
      {"variant": "LTKLREMGREKCHQYWPAERSARR", "note": "[Y24R]", "protein stability index": 2.7},
      {"variant": "LTKLREMGREKCHQYWPAERSARW", "note": "[Y24W]", "protein stability index": 2.46},
      {"variant": "LTKLREMGREKCHQYWPAERSARV", "note": "[Y24V]", "protein stability index": 2.41},
      {"variant": "LTKLREMGREKCHQYWPAERSARE", "note": "[Y24E]", "protein stability index": 3.1},
      {"variant": "LTKLREMGREKCHQYWPAERSARH", "note": "[Y24H]", "protein stability index": 2.75},
      {"variant": "LTKLREMGREKCHQYWPAERSARG", "note": "[Y24G]", "protein stability index": 2.67},
      {"variant": "LTKLREMGREKCHQYWPAERSARF", "note": "[Y24F]", "protein stability index": 2.21},
      {"variant": "LTKLREMGREKCHQYWPAERSARN", "note": "[Y24N]", "protein stability index": 3.2},
      {"variant": "LTKLREMGREKCHQYWPAERSARQ", "note": "[Y24Q]", "protein stability index": 2.65},
      {"variant": "LTKLREMGREKCHQYWPAERSARS", "note": "[Y24S]", "protein stability index": 3.01},
      {"variant": "LTKLREMMREKCHQYWPAERSARY", "note": "[G8M]", "protein stability index": 2.07},
      {"variant": "LTKLREMEREKCHQYWPAERSARY", "note": "[G8E]", "protein stability index": 2.65},
      {"variant": "LTKLREMVREKCHQYWPAERSARY", "note": "[G8V]", "protein stability index": 2.58},
      {"variant": "LTKLREMSREKCHQYWPAERSARY", "note": "[G8S]", "protein stability index": 1.94},
      {"variant": "LTKLREMWREKCHQYWPAERSARY", "note": "[G8W]", "protein stability index": 1.85},
      {"variant": "LTKLREMNREKCHQYWPAERSARY", "note": "[G8N]", "protein stability index": 2.29},
      {"variant": "LTKLREMDREKCHQYWPAERSARY", "note": "[G8D]", "protein stability index": 3.22},
      {"variant": "LTKLREMQREKCHQYWPAERSARY", "note": "[G8Q]", "protein stability index": 3.13},
      {"variant": "LTKLREMHREKCHQYWPAERSARY", "note": "[G8H]", "protein stability index": 1.93},
      {"variant": "LTKLREMGREKCHQYWPRERSARY", "note": "[A18R]", "protein stability index": 2.13},
      {"variant": "LTKLREMGREKCHQYWPWERSARY", "note": "[A18W]", "protein stability index": 2.16},
      {"variant": "LTKLREMGREKCHQYWPFERSARY", "note": "[A18F]", "protein stability index": 2.21},
      {"variant": "LTKLREMGREKCHQYWPGERSARY", "note": "[A18G]", "protein stability index": 2.06},
      {"variant": "LTKLREMGREKCHQYWPIERSARY", "note": "[A18I]", "protein stability index": 2.21},
      {"variant": "LTKLREMGREKCHQYWPYERSARY", "note": "[A18Y]", "protein stability index": 1.97},
      {"variant": "LTKLREMGREKCHQYWPPERSARY", "note": "[A18P]", "protein stability index": 2.39},
      {"variant": "LTKLREMGREKCHQYWPLERSARY", "note": "[A18L]", "protein stability index": 1.87},
      {"variant": "LTKLREMGREKCHQYWPDERSARY", "note": "[A18D]", "protein stability index": 2.49},
      {"variant": "LTKLRNMGREKCHQYWPAERSARY", "note": "[E6N]", "protein stability index": 1.8},
      {"variant": "LTKLRWMGREKCHQYWPAERSARY", "note": "[E6W]", "protein stability index": 1.82},
      {"variant": "LTKLRAMGREKCHQYWPAERSARY", "note": "[E6A]", "protein stability index": 2.41},
      {"variant": "LTKLRVMGREKCHQYWPAERSARY", "note": "[E6V]", "protein stability index": 1.73},
      {"variant": "LTKLRRMGREKCHQYWPAERSARY", "note": "[E6R]", "protein stability index": 2.38},
      {"variant": "LTKLRPMGREKCHQYWPAERSARY", "note": "[E6P]", "protein stability index": 2.33},
      {"variant": "LTKLRTMGREKCHQYWPAERSARY", "note": "[E6T]", "protein stability index": 2.52},
      {"variant": "LTKLRMMGREKCHQYWPAERSARY", "note": "[E6M]", "protein stability index": 2.18},
      {"variant": "LTKLREVGREKCHQYWPAERSARY", "note": "[M7V]", "protein stability index": 2.56},
      {"variant": "LTKLREEGREKCHQYWPAERSARY", "note": "[M7E]", "protein stability index": 3.25},
      {"variant": "LTKLREYGREKCHQYWPAERSARY", "note": "[M7Y]", "protein stability index": 2.7},
      {"variant": "LTKLRERGREKCHQYWPAERSARY", "note": "[M7R]", "protein stability index": 2.35},
      {"variant": "LTKLRECGREKCHQYWPAERSARY", "note": "[M7C]", "protein stability index": 2.23}
    ]}
  ]
}
